Like-named read-outs stand apart in the source and are kept apart here.
Experiments:
[1] = test system: A549 cells; assay: Wound-healing assay; assay type: cell-based, human; conditions: 24 h
Experimental: Wound-healing assay was carried out to evaluate the inhibitory effects of (A) GMI or (B) AG1478 on A549 cell migration. Confluent monolayers of A549 cells were scarred, and repair was monitored microscopically after 24 h of treatment with (A) GMI or (B) AG1478. The cells migrating into the wound area were counted on the basis of the dashed line as time zero. On wound-healing assay, the cancer cells were cultured onto 24-well plates and grown in medium containing 10% FBS to nearly confluent cell monolayer. A plastic pipette tip was used to draw a linear “wound” in the cell monolayer of each well. The monolayer was then washed twice with PBS to remove debris or detached cells, and GMI was added at different concentrations ([…]). PBS was added to the control well as the solvent control. After 24 h of incubation, the cells were washed twice with PBS, fixed with 95% alcohol, and stained with 10% Giemsa solution (Merck). The cells were photographed under a light microscope (magnification, ×200). The experiments were performed in triplicate. After incubation with 2-8 μg/ml of GMI for 24 h, the cells that migrated to the denuded zone were photographed.

[2] = test system: MCF7; assay: NCI60 in vitro screening, Breast Cancer; assay type: cell-based
[3] = test system: A498; assay: NCI60 in vitro screening, Renal Cancer; assay type: cell-based
[4] = test system: HCC-2998; assay: NCI60 in vitro screening, Colon Cancer; assay type: cell-based
[5] = test system: NCI-H522; assay type: cell-based
[6] = test system: MDA-MB-435; assay: NCI60 in vitro screening, Melanoma; assay type: cell-based
[7] = test system: T-47D; assay: NCI60 in vitro screening, Breast Cancer; assay type: cell-based
[8] = test system: LOX IMVI; assay: NCI60 in vitro screening, Melanoma; assay type: cell-based; conditions: one dose
[9] = test system: SK-MEL-28; assay: NCI60 in vitro screening, Melanoma; assay type: cell-based
[10] = test system: A549 cells; assay: Actin staining; assay type: cell-based, human
Experimental: A549 cells (1×10^4 cells/well) were seeded onto 24 wells with coverslip. A549 cells were pretreated with various concentrations of GMI (2, 4, 8 μg/ml) for 1 h before being stimulated with 10 ng/mL EGF for 23 h. A549 cells treated with or without EGF were stained with Texas Red®-X phalloidin and Alexa Fluor 488 DNase I conjugate to detect F-actin (red) and G-actin (green).
Cells were washed twice with PBS and fixed in a 3.7% paraformaldehyde-PBS solution for 10 min at room temperature. After two additional washes with PBS, cells were permeabilized with a solution of 0.1% Triton X-100 in PBS for 3 to 5 min and washed again with PBS. Texas Red-X phalloidin (2 units/mL) and Alexa Fluor 488 DNase I conjugate (9 μg/mL) were used to localize filamentous actin (F-actin) and G-actin. Fluorescent dyes were diluted with blocking solution (1% bovine serum albumin and 0.025% saponin in PBS) and added to coverslips for 60 min at room temperature. After three washes with PBS, coverslips were mounted on a microscope slide with Prolong Gold antifade reagent with DAPI (Life Technologies). F-actin cytoskeleton imaging was performed with a confocal laser scanning microscope (ZEISS LSM510 BETA) at ×400 magnification.

[11] = test system: MDA-MB-231/ATCC; assay: NCI60 in vitro screening, Breast Cancer; assay type: cell-based
[12] = test system: A549/D16; assay: MTT assay, drug sensitivity; assay type: cell-based, human; conditions: A549/D16, 48 h, MTT
Experimental: (§1) A549 cell line and resistant A549 cell sublines (A549/D16, A549/D32 and A549/V16) (5000 cells/well of 96-well plate) were treated with increased doses concentrations (μM) of GMI from Ganoderma microsporum, docetaxel, vincristine and doxorubicin for 48 h, respectively. Cell viability was measured by MTT assay and the results are presented as the calculated cell growth inhibitory ratio. Experiments were repeated three times.

[13] = test system: A549/V16; assay: MTT assay, drug sensitivity; assay type: cell-based, human; conditions: A549/V16, 48 h, MTT
Experimental: as §1

[14] = test system: A549; assay: MTT assay, drug sensitivity; assay type: cell-based, human; conditions: A549, 48 h, MTT
Experimental: as §1

[15] = test system: SK-MEL-2; assay: NCI60 in vitro screening, Melanoma; assay type: cell-based; conditions: SK-MEL-2, one dose

B1: GMI: immunomodulatory protein from Ganoderma microsporum, amino acid sequence SEQ ID NO: 3, manufactured by Mycomagic Biotechnology Co., Ltd. (protein, listed as Ganoderma microsporum)
chain: MSDTALIFTLAWNVKQLAFDYTPNWGRGRPSSFIDTVTFPTVLTDKAYTYRVVVSGKDLGVRPSYAVESDGSQKINFLEYNSGYGIADTNTIQVYVIDPDTGNNFIVAQWN
- A549 cell migration to the denuded zone ([1]; GMI 2-8 μg/ml): dose-dependently suppresses A549 cell migration
- EGF-induced migration / wound closure activity ([1]; co-treated with EGF): markedly decreased wound closure activity
- TGI ([2]; MCF7): >1.25E2
- Percent Growth ([2]; MCF7, Log10 Concentration 0.1): 93%
- Percent Growth ([2]; MCF7, Log10 Concentration 1.1): 49%
- Percent Growth ([2]; MCF7, Log10 Concentration 2.1): 23%
- Percent Growth ([2]; MCF7, Log10 Concentration −0.9): 104%
- Percent Growth ([2]; MCF7, Log10 Concentration −1.9): 100%
- Growth Percent ([2]; MCF7, one dose): 42.68%
- GI50 ([2]; MCF7, in µg/mL): 1.15E1
- TGI ([3]; A498): 7.07E1
- Percent Growth ([3]; A498, Log10 Concentration 0.1): 114%
- Percent Growth ([3]; A498, Log10 Concentration 1.1): 108%
- Percent Growth ([3]; A498, Log10 Concentration 2.1): −35%
- Percent Growth ([3]; A498, Log10 Concentration −0.9): 102%
- Percent Growth ([3]; A498, Log10 Concentration −1.9): 107%
- Growth Percent ([3]; A498, one dose): 98.16%
- GI50 ([3]; A498, in µg/mL): 3.17E1
- TGI ([4]; HCC-2998): >1.25E2
- Percent Growth ([4]; HCC-2998, Log10 Concentration 0.1): 105%
- Percent Growth ([4]; HCC-2998, Log10 Concentration 1.1): 93%
- Percent Growth ([4]; HCC-2998, Log10 Concentration 2.1): 88%
- Percent Growth ([4]; HCC-2998, Log10 Concentration −0.9): 99%
- Percent Growth ([4]; HCC-2998, Log10 Concentration −1.9): 103%
- Growth Percent ([4]; HCC-2998, one dose): 132.04%
- TGI ([5]; NCI-H522): 1.25E2
- Percent Growth ([5]; NCI-H522, Log10 Concentration 0.1): 105%
- Percent Growth ([5]; NCI-H522, Log10 Concentration 1.1): 98%
- Percent Growth ([5]; NCI-H522, Log10 Concentration 2.1): 53%
- Percent Growth ([5]; NCI-H522, Log10 Concentration −0.9): 100%
- Percent Growth ([5]; NCI-H522, Log10 Concentration −1.9): 95%
- Growth Percent ([5]; NCI-H522, one dose): 125.90%
- TGI ([6]; MDA-MB-435): >1.25E2
- Percent Growth ([6]; MDA-MB-435, Log10 Concentration 0.1): 91%
- Percent Growth ([6]; MDA-MB-435, Log10 Concentration 1.1): 85%
- Percent Growth ([6]; MDA-MB-435, Log10 Concentration 2.1): 3%
- Percent Growth ([6]; MDA-MB-435, Log10 Concentration −0.9): 96%
- Percent Growth ([6]; MDA-MB-435, Log10 Concentration −1.9): 101%
- Growth Percent ([6]; MDA-MB-435, one dose): 79.29%
- GI50 ([6]; MDA-MB-435, in µg/mL): 3.34E1
- TGI [7]: >1.25E2
- Percent Growth ([7]; Log10 Concentration 0.1): 88%
- Percent Growth ([7]; Log10 Concentration 1.1): 43%
- Percent Growth ([7]; Log10 Concentration 2.1): 13%
- Percent Growth ([7]; Log10 Concentration −0.9): 96%
- Percent Growth ([7]; Log10 Concentration −1.9): 101%
- GI50 ([7]; in µg/mL): 8.63E0
- Growth Percent ([7]; one dose): 28.25%
- Growth Percent [8]: 67.70%
- TGI ([9]; SK-MEL-28): >1.25E2
- Percent Growth ([9]; SK-MEL-28, Log10 Concentration 0.1): 110%
- Percent Growth ([9]; SK-MEL-28, Log10 Concentration 1.1): 98%
- Percent Growth ([9]; SK-MEL-28, Log10 Concentration 2.1): 72%
- Percent Growth ([9]; SK-MEL-28, Log10 Concentration −0.9): 103%
- Percent Growth ([9]; SK-MEL-28, Log10 Concentration −1.9): 98%
- Growth Percent ([9]; SK-MEL-28, one dose): 106.96%
- elongation and polymerization of F-actin and G-actin ([10]; A549 cells treated with EGF or GMI alone): abrogated
- filopodia formation ([10]; A549 cells, GMI 2, 4, 8 μg/ml, EGF 10 ng/mL): fewer filopodia fibers
- focal contact size ([10]; A549 cells, GMI alone and combined with EGF): reduced by GMI in a dose-dependent manner
- TGI [11]: 3.65E1
- Percent Growth ([11]; Log10 Concentration 0.1): 93%
- Percent Growth ([11]; Log10 Concentration 1.1): 41%
- Percent Growth ([11]; Log10 Concentration 2.1): −47%
- Percent Growth ([11]; Log10 Concentration −0.9): 96%
- Percent Growth ([11]; Log10 Concentration −1.9): 103%
- GI50 ([11]; in µg/mL): 8.34E0
- Growth Percent ([11]; one dose): 23.69%
- IC50 ± SD [12]: 11.37 ± 0.55 µg/mL
- IC50 ± SD [13]: 13.10 ± 0.17 µg/mL
- IC50 ± SD [14]: 15.73 ± 0.42 µg/mL
- Growth Percent [15]: 105.92%
